These results are taken from patent US7485460B2, “Enhanced growth of adult stem cells with Dkk-1” (Tulane University Health Sciences Center, priority 2003, dated 2009).

The test system of experiment [1] is MSCs (RS cells). In words: Binding of biotinylated Dkk-1 peptides to MSCs (streptavidin-biotin fluorescence microscopy). Further details: species or system human. The following applies: for fluorescence of MSCs labeled with peptide: FIGS. 30A-30G correspond to peptides A-G; for binding to early progenitor cells (RS cells): biotin-labeled peptide, streptavidin Alexafluor 594. The text has this: FIG. 30, comprising FIGS. 30A-30H, is an image of a set of photomicrographs depicting solid phase binding assays to MSCs using biotinylated peptides. The labeled peptides in FIGS. 30A-30G correspond to peptides A-G in FIG. 29. FIG. 30H is a control.
The peptides were then labeled with biotin for use with a commercially available streptavidin-biotin detection system. The streptavidin was linked to a fluorescent tag (Alexafluor 594, Molecular Probes, Eugene, Oreg.) so as to be easily detected by fluorescence microscopy. MSCs were incubated with one of the peptides and the streptavidin-biotin detection system as indicated by the manufacturer's instructions. Then the MSCs were observed under a fluorescence microscope. All of these methods are well-known in the art and are easily found throughout the literature.

Experiment [2] has as its system hMSCs. The experiment is described as follows: Effect of recombinant Dkk-1 on hMSC proliferation (fluorescence assay for nucleic acids). The experiment is classed as cell-based, human. On the procedure: For assay of proliferation, cells were also quantified by fluorescent labeling of nucleic acids (CyQuant dye; Molecular Probes Incorporated; Eugene, Oreg.). hMSCs were plated at 100 cells per cm^2 into 10 cm^2 wells and allowed to grow for 4 days. The cells were washed with PBS and medium was added containing the appropriate concentration of Dkk-1 and FCS. The cells were recovered by trypsinization as described above. Fluorescence analysis was carried out using a microplate fluorescence reader (FLx800; Bio-Tek Instruments Incorporated; Winooski, Vt.) set to 480 nanometers excitation and 520 nanometers emission.
To test the hypothesis that Dkk-1 increased proliferation of hMSCs, its effects on rate of growth were assayed. The hMSCs were plated at a density of 100 cells per cm^2 in 6 well plates (10 per cm^2 per well). After 4 days, when the cells were in early log phase of growth, the conditioned medium was removed and replaced with fresh medium containing either vehicle, 0.1 micrograms per milliliter Dkk-1 or 0.01 micrograms per milliliter Dkk-1.

In experiment [3] the test system is beta-catenin. The experiment is described as follows: beta-catenin levels in hMSCs by western blotting. The experiment is classed as cell-based, human. The settings on record: stationary phase hMSCs, 0.1 micrograms per milliliter. On the procedure: For immunoblotting, filters were blocked in PBS containing 0.1% (v/v) Tween 20 (Sigma, St. Louis, Mo.) for 1 hour. For detection of beta-catenin, blots were probed with an anti-beta-catenin monoclonal antibody at a dilution of 1 to 1000 (clone 5H10 Chemicon International; Temecula, Calif.) followed by an anti-mouse peroxidase-conjugated rabbit serum (Sigma Aldrich, St. Louis, Mo.). For detection of Dkk-1, blots were probed in 1 microgram per milliliter of anti Dkk-1 polyclonal antibody (see below) followed by an anti-rabbit peroxidase-conjugated monoclonal antibody (clone RG 96, Sigma Aldrich, St. Louis, Mo.). Positive bands were detected by chemiluminescence in accordance with a previously described procedure (Spees et al. Cell Stress Chaperones, 7:97-106 (2002)).
In further experiments, the effect of recombinant Dkk-1 on beta-catenin levels in hMSCs were investigated.
Background: Immunoblotting shows a protein as a band on a membrane.

Experiment [4] relates to hMSCs. In words: Colony-forming potential of hMSCs with recombinant Dkk-1 (crystal violet). Type of experiment: cell-based, human. On the procedure:
MSCs were plated at about 0.6 cells per cm^2 and incubated in complete medium for 17 days. For direct visualization of colonies, a 5% (w/v) solution of crystal violet in methanol (Sigma Aldrich, St. Louis, Mo.) was added to tissue culture dishes previously washed twice with PBS. After 20 minutes, the plates were washed with distilled water and air-dried. Stained colonies with diameters 2 millimeters or greater were counted.
To test the effect of recombinant Dkk-1 on the colony-forming potential of hMSCs, 100 hMSCs were plated onto a 176 cm2 tissue culture dish and allowed to form colonies in the absence or presence of Dkk-1 in medium supplemented with 10% (v/v) fetal calf serum instead of the optimal concentration of 20%.

Experiment [5] deals with beta-catenin. In words: Cellular distribution of beta-catenin in hMSCs by immunostaining. Type of experiment: cell-based, human. The settings on record: stationary phase hMSCs, 0.1 micrograms per milliliter. How it is done:
hMSCs in tissue culture dishes were fixed with 4% (v/v) Paraformaldehyde (USB Corporation, Cleveland, Ohio) for 10 minutes at 4° C. and washed with PBS (Fisher Lifesciences, Pittsburgh, Pa.). Sections (30 millimeter×60 millimeter) of the dishes containing the adherent cells were excised using a hot scalpel under constant hydration with PBS. The samples were blocked in PBS containing 0.4% (v/v) Triton X-100 (Sigma Aldrich, St. Louis, Mo.) and 5% (v/v) goat serum (Sigma Aldrich). Anti-beta-catenin (described above) was added in a 1:400 dilution to the slides in block solution. An appropriate concentration of mouse IgG1 (Cymbus Biotechnology Chandlers Ford, Hants, UK) was used as an isotype control. The samples were incubated for 16 hours at 4° C. followed by washing in PBS. The samples were then incubated for 1 hour in a 1:800 dilution of Alexa-Fluor 594-congugated secondary antibody (Molecular Probes, Eugene, Oreg.). Isotype controls were acquired from Chemicon and Becton Dickinson Slides were washed and mounted with medium containing DAPI (Vector Laboratories Incorporated; Burlingame, Calif.). Immunofluorescence microscopy and digital imaging was carried out using an upright fluorescent microscope (Eclipse 800, Nikon, Japan). […]

Setting [6] is: 100 hMSCs per 176 cm2 dish, 10% FCS, 2.5 weeks.

As to “LSSKMYHTKGQEGSVCLRSS (Peptide synthesized from Dkk-1 LRP-6 binding domain) [Peptide B]”, in experiment [1], the “fluorescence of MSCs labeled with peptide” value is recorded as “highly fluorescent” and the “binding to early progenitor cells (RS cells)” value is recorded as “tightly bound”.
For “sTKHRRKGSHGLEIFQRCYs (STKHRRKGSHGLEIFQRCYS; Peptide synthesized from Dkk-1 LRP-6 binding domain) [Peptide E]”, in that order: “highly fluorescent” and “tightly bound”.

B1: recombinant Dkk-1: Histidine-tagged recombinant human Dkk-1 expressed in E. coli, refolded from inclusion bodies; inhibitor of Wnt signaling (protein)
chain: TLNSVLNSNAIKNLPPPLGGAAGHPGSAVSAAPGILYPGGNKYQTIDNYQPYPCAEDEECGTDEYCASPTRGGDAGVQICLACRKRRKRCMRHAMCCPGNYCKNGICVSSDQNHFRGEIEETITESFGNDHSTLDGYSRRTTLSSKMYHTKGQEGSVCLRSSDCASGLCCARHFWSKICKPVLKEGQVCTKHRRKGSHGLEIFQRCYCGEGLSCRIQKDHHQASNSSRLHTCQRH
As for B1, the “duration of effect on proliferation” value in experiment [2] (0.1 micrograms per milliliter) turned out to be 30 h. Moreover, the “rate of proliferation at high concentration” value in experiment [2] (0.5 micrograms per milliliter) is recorded as “failed to increase the rate of proliferation”. The “effect on proliferation as cells approached stationary phase” value in experiment [2] (cells approaching stationary phase of growth) is reported as “no significant effect”. Further, the “effect on lag phase and proliferation” value in experiment [2] (early log phase hMSCs, fresh medium with 0.1 or 0.01 micrograms per milliliter Dkk-1) was “reduced the lag phase and initially increased proliferation”. The “duration of significant effect on proliferation” value in experiment [2] (tenfold less Dkk-1 (0.01 micrograms per milliliter)) is listed as “about 15 hours”. In addition, in experiment [3], the beta-catenin levels entry is recorded as “reduced the levels of beta-catenin”. In addition, the “colony size and number at high concentration” value in experiment [4] (0.5 micrograms per milliliter) is “reduced both the colony size and number”. In addition, in experiment [4] (setting [6]), the colony number entry is “no significant effect” and the colony size entry was “increased colony size”. For the same molecule, in experiment [5], the “cellular distribution of beta-catenin” value is “clearance of the cytoplasmic pool of beta-catenin”.
